How the values were obtained:
[1] = molecular target: human CD19 (hCD19, hCD19 variant 2), expressed on U87MG cells from the sRRVe-F4-hCD19 vector (human) (UniProt P15391); experiment: cell-based or functional assay
[2] = molecular target: truncated human CD19 (hCD19t, CD19t), 323 amino acids, 233 amino acids of the cytoplasmic domain removed (human) (UniProt P15391); experiment: cell-based or functional assay

Which results are given for “anti-CD19 CAR-T (chimeric antigen receptor against CD19 on T cells)”?
decrease in cell viability, WST-1 assay, E:T ratio 0.5:1, first day; U87MG cells transfected with sRRVgp-F4-DsRed/sRRVe-F4-hCD19 [1]: 54.9%; decrease in cell viability, WST-1 assay, E:T ratio 1:1, within 1 day; U87MG cells transfected with sRRVgp-F4-DsRed/sRRVe-F4-hCD19 [1]: 25.8%; decrease in cell viability, WST-1 assay, E:T ratio 0.5:1, first day; U87MG cells transfected with sRRVgp-F4-hCD19t/sRRVe-F4-TK [2]: 54.3%; decrease in cell viability, WST-1 assay, E:T ratio 0.5:1, first day; U87MG cells transfected with sRRVgp-F4-yCD/sRRVe-F4-hCD19t [2]: 58.2%; decrease in cell viability, WST-1 assay, E:T ratio 1:1, within 1 day; U87MG cells transfected with sRRVgp-F4-hCD19t/sRRVe-F4-TK [2]: 24.8%; decrease in cell viability, WST-1 assay, E:T ratio 1:1, within 1 day; U87MG cells transfected with sRRVgp-F4-yCD/sRRVe-F4-hCD19t [2]: 20%

— patent publication US20230265458A1
